This series is described as follows: yeast display, Sf9 membrane polyspecificity reagent, FACS + sequencing; frameworks hold sequencing errors. In a few lines:
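A nanobody's polyreactivity label depends on the gate it was sorted from. Yeast display cells were stained with 10% biotinylated, detergent-solubilized Sf9 membrane reagent for 1 hour at 4 °C, enriched on streptavidin microbeads and sorted by FACS. The low and high (top ~1%) gates were set on anti-HA fluorescence for expression and streptavidin fluorescence for reagent binding.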
On to “QVQLVESGGGLVQAGGSLRLSCAASGFTFSLYAMGWYRQAPGKEREMVAAISRIGGRTYYADSVKGRFTISRDNAKNTVYLQMNSLKPEDTAVYYCAARQGYRSYRRYDYWGQGTQVTVSS”, for which the “polyreactivity (PSR sort gate)” value is given as “high polyreactivity”.

Take “QVQLVESGGGLVQAGGSLRLSCAASGFTFSNYAMGWYRQAPGKERELVAAISFRTGRTYYADSVKGRFTISRDNAKNTVYLQMNSLKPEDTAVYYCAAVVQSSEPVEYDYWGQGTQVTVSS”: the “polyreactivity (PSR sort gate)” value is “high polyreactivity”.

With “QVQLVESGGGLVQAGGSLRLSCAASGFTFSPNAMGWDRQAPGKERELVATISWNGGRTHYADSVKGRFTISRDNANKTVYLQMNSLKPEDTAVYYCNVVRATGRYYYWGQGTQVTVSS”, the “polyreactivity (PSR sort gate)” value is on record as “high polyreactivity”.

With “QVQLVESGGGLVQAGGSLRLSCAASGFTFSQYAMGWYRQAPGKERELVAAISRSGGSTYYADSVKGRFTISRDNAKNTVYLQMNSLKPEDTAVYYCAARGPVGYGWRYRPWHDYWGQGTQVTVSS”, the “polyreactivity (PSR sort gate)” value is given as “high polyreactivity”.

Turning to “QVQLVESGGGLVQAGGSLRLSCAASGFTFSRNAMGWYRQAPGKERELVAAISQSGGSTYYADSVKGRFTISRDNAKNTVYLQMNSRKPEDTAVYYCAATGWIIIKPTSSLKFNYWGQGTQVTVSS”, the “polyreactivity (PSR sort gate)” value is listed as “high polyreactivity”.

As to “QVQLVESGGGLVQAGGSLRLSCAASGFTFSRNAMGWYRQAPGKERELVAAITWSGGRTYYADSVKGRFTLSRDNAKNTVYLQMNSLKPEDTAVYYCAARKYHLRSAYDYWGHGTQVTVSS”, the “polyreactivity (PSR sort gate)” value was “low polyreactivity”.

Consider “QVQLVESGGGLVQAGGSLRLSCAASGFTFSRNTMGWYRQAPGKEREFVAGIRRSGSSTYYADSVKGRFTISRDNAKNTVYLQMNSLKPEDTAVYYCARVNGAKQGGEYDYWGQGTQVTVSS”, for which the “polyreactivity (PSR sort gate)” value is reported as “high polyreactivity”.

On to “QVQLVESGGGLVQAGGSLRLSCAASGFTFSRNTMGWYRQAPGKERELVARISASGGSTYYADSVKGRFTISRDNAKNTVYLQMNSLKPEDTAVYYCAAVYRRYGGSRYDYWGQGTQVTVSS”, for which the “polyreactivity (PSR sort gate)” value is “high polyreactivity”.

For the sequence “QVQLVESGGGLVQAGGSLRLSCAASGFTFSRNTMGWYSQAPGKERELVARISASGGSTYFADSVKGRITISRDNAKNTVYLQMTSLKQEATAVYYCAAVYRRYGGSRYDYWGQGTQVTVSS”, the “polyreactivity (PSR sort gate)” value is “high polyreactivity”.

Turning to “QVQLVESGGGLVQAGGSLRLSCAASGFTFSRNTMGWYSQAPGKERELVARISASGGSTYYADSVKGRITISRDNAKNTVYLQMNSLKPEATAVYYCAAVYRRYGGSRYDYWGQGTQVTVSS”, the “polyreactivity (PSR sort gate)” value was “high polyreactivity”.

“QVQLVESGGGLVQAGGSLRLSCAASGFTFSRNVMGWYRQAPGKERELVADITLSGASTYYADSVKGRFTISRDNAKNTVYLQMNSLKPEDTAVYYCAAEPYHWRWGWRHDYWGQGTQVTVSS”: the “polyreactivity (PSR sort gate)” value is on record as “low polyreactivity”.

In the case of “QVQLVESGGGLVQAGGSLRLSCAASGFTFSRYAMGGYRQAPGKERELVAAISIRGGNTYYADSVKGRFTISRDNAKNTVYLQMNSLKPEDTAVYYCAAAGRYLRYAYWGQGTQVTVSS”, the “polyreactivity (PSR sort gate)” value is “high polyreactivity”.

For “QVQLVESGGGLVQAGGSLRLSCAASGFTFSRYAMGWYRQAPGKERELVAAIDDGGSTYYADSVKGRFTISRDNAKNTVYLQMNSLKPEDTAVYYCNARGYGTLNVRRERMDYWGQGTQVTVSS”, the “polyreactivity (PSR sort gate)” value is on record as “high polyreactivity”.

Consider “QVQLVESGGGLVQAGGSLRLSCAASGFTFSRYAMGWYRQAPGKERELVAAITRGGSTNYADSVKGRFTISRDNAKNTVYLQMNSLKPEDTAVYYCAVRIRYSTNAYYYWGQGTQVTVSS”, for which the “polyreactivity (PSR sort gate)” value is given as “high polyreactivity”.

“QVQLVESGGGLVQAGGSLRLSCAASGFTFSSNAMGWSRPAPGKERELVAGITWSGGSTYYADSVKGRFTISRDNAKNTVYLQMNRLKPEDTAVYYCNFRYNASQYDYVYWGQGTQVTVSS”: the “polyreactivity (PSR sort gate)” value is listed as “low polyreactivity”.

For the sequence “QVQLVESGGGLVQAGGSLRLSCAASGFTFSSNAMGWYRQAPGKERELVAAISRGGRTYYADSVKGRFTISRDNAKNTVYLQMNSLKPEDTAVYYCATDYVYRYDYWGQGTQVTVSS”, the “polyreactivity (PSR sort gate)” value is reported as “high polyreactivity”.

On to “QVQLVESGGGLVQAGGSLRLSCAASGFTFSSNAMGWYRQAPGKERELVAVIDSGDITNYADSVKGRFTISRDYAKNTVYLQMNSLKPEDTAVYYCAADSYSYFTDDHGYWGQGTQVTVSS”, for which the “polyreactivity (PSR sort gate)” value is on record as “high polyreactivity”.

As for “QVQLVESGGGLVQAGGSLRLSCAASGFTFSSYDMGWYRQAPGKDRDLVAAIDFIDGSTYYADSVKGRFTISRDNAKKTVYLQKNSLKPEDTAVYYCAADPVFKVELWPVRVRVDYWGQGTQVTVSS”, the “polyreactivity (PSR sort gate)” value is reported as “low polyreactivity”.

“QVQLVESGGGLVQAGGSLRLSCAASGFTFSSYVMGWYRQAPGKERELVAAISGSGGSTYYADSVKGRFTISRDNAKNTVYLQMNSLKPEDTAVYYCAAVRRVGPTSYYYWGQGTQVTVSS”: the “polyreactivity (PSR sort gate)” value was “high polyreactivity”.

For “QVQLVESGGGLVQAGGSLRLSCAASGFTFSTNAMGWYRQAPGKERELVAAISRGGSTNYADSVKGRFTISRDIAKNTVYLQMNSLKPEDTAVYYCNAYQSPDEEEYYWGQGTQVTVSS”, the “polyreactivity (PSR sort gate)” value is listed as “low polyreactivity”.

For “QVQLVESGGGLVQAGGSLRLSCAASGFTFSTYAMGWYRPAPGKERELGAAISRSGGSTYYADSVKGRFTISRDNAKNTVYLQMNSLKPEDTAVYYCAADGLRRESSYYYWAQGTQVTVSS”, the “polyreactivity (PSR sort gate)” value is listed as “high polyreactivity”.

As to “QVQLVESGGGLVQAGGSLRLSCAASGFTFSVNAMGWYRQAPGKERELVAAITWSGGSTYYADSVKGRFTISRDNAKNTDYLQMNSLKPEDTAVFYCNARAQSSWGFWYDYWGQGTQVTVSS”, the “polyreactivity (PSR sort gate)” value was “high polyreactivity”.

As for “QVQLVESGGGLVQAGGSLRLSCAASGFTFSVYTMGWYRQAPGNERELVAALRVSSGGTFYADSVKGRFTISRDNAKNTVYLQRNSLKPEDTAVYYCAVDRYTYDPIFSVVRRYDYWGQGTQVTVSS”, the “polyreactivity (PSR sort gate)” value was “high polyreactivity”.

“QVQLVESGGGLVQAGGSLRLSCAASGFTFSYNAMGWYRPAPGKERELVAVITKSGGSTYYADSVKGRFTISRDNAKNTVYLQMNSLKPEDTAVYYCNRQIKKLLTTHYYWGQGTQVTVSS”: the “polyreactivity (PSR sort gate)” value was “high polyreactivity”.

As to “QVQLVESGGGLVQAGGSLRLSCAASGFTFSYNAMGWYRQAPGKERELVAVIKSSGGRTYYADSVKGRFTISRDNAKNTVYLQMNSLKPEDTAVYYCNAVYLQHRYRMYYWGQGTQVTVSS”, the “polyreactivity (PSR sort gate)” value is “high polyreactivity”.

Consider “QVQLVESGGGLVQAGGSLRLSCAASGFTFSYNAMGWYRQAPGKERELVAVINSSGGRTYYADSVKGRFTISRDNAKNTVYLQMNSLKPEDTAVYYCAARPVLAKYYYWGQGTQVTVSS”, for which the “polyreactivity (PSR sort gate)” value is recorded as “high polyreactivity”.

“QVQLVESGGGLVQAGGSLRLSCAASGFTFSYNTMGWYRQAPGKERELVAAISRSGGRTYYADSVKGRFTISRDNAKNTVYLQMNSLKPEDTAVYYCARYSVTGYGANSGPEMDYWGQGTQVTVSS”: the “polyreactivity (PSR sort gate)” value is recorded as “high polyreactivity”.

Regarding “QVQLVESGGGLVQAGGSLRLSCAASGFTFSYYALGWYRQAPGKERELVAVISDRGGITYYADSVKGRFTISRDNAKNTVYLQMNSRKPEDTAVYYCAAQNPRYNYRYYYWGQGTQVTVSS”, the “polyreactivity (PSR sort gate)” value is “low polyreactivity”.

Consider “QVQLVESGGGLVQAGGSLRLSCAASGFTFSYYAMGWYRPAPGKERELVAAITSGGSTYYADYVKGRFTISRDNAKNTVYLQMNSLKPEDTAVYYCNADGWYYPTDDYWGQGTQVTVSS”, for which the “polyreactivity (PSR sort gate)” value is reported as “low polyreactivity”.

For the sequence “QVQLVESGGGLVQAGGSLRLSCAASGFTFSYYAMGWYRQAPGKERELVAAISFNGGRTYYADSVKGRFTISRDNAKNTVYLQMISLKPEDTAVYYCAARSLRPETLGDYWGQGTQVTVSS”, the “polyreactivity (PSR sort gate)” value was “high polyreactivity”.

These data come from the nanobody polyreactivity screen of Harvey et al. (2022).
